According to PMC6092398, “Revealing circadian mechanisms of integration and resilience by visualizing clock proteins working in real time” (Nature Communications, 2018):

Key:
KaiA [1] = molecular target: KaiA (UniProt Q79PF6); experiment: HS-AFM single-molecule dwell time
KaiA [2] = molecular target: KaiA (UniProt Q79PF6); experiment: HS-AFM single-molecule dwell time; remark: listed apart in the source
[3] = molecular target: the molecule itself; experiment: high-speed atomic force microscopy (HS-AFM); KaiC^WT alone immobilised on bare mica (N-terminal side seen), images compared with an AFM image simulated from the crystal structure
KaiC-DA (mimic of pS/T) = molecular target: T1, KaiC-DA (mimic of pS/T) (S. elongatus, UniProt Q79PF4 1-519, KaiC-DA (S431 to D) | KaiC-DA (T432 to A)); experiment: high-speed atomic force microscopy (HS-AFM); KaiC phospho-mimics on AP-mica (CII end up), 1 μM KaiA in solution, no ATP; dwell time of the KaiA-bound state from images at 10 fps, fitted to a first order model; 20 mM Tris-HCl pH 8.0, 5 mM MgCl2, 25-28 °C; conditions: both partners purified
T1 construct: KaiC of Synechococcus elongatus with the two phosphorylation sites S431 and T432 changed to D and A; the two substitutions are read from these; source: E. coli BL21 or DH5α, pGEX-based construct, purified (glutathione-agarose, HRV3C cleavage on the column, Q Sepharose); not shown: GST, N-terminal, cleaved
T1 sequence: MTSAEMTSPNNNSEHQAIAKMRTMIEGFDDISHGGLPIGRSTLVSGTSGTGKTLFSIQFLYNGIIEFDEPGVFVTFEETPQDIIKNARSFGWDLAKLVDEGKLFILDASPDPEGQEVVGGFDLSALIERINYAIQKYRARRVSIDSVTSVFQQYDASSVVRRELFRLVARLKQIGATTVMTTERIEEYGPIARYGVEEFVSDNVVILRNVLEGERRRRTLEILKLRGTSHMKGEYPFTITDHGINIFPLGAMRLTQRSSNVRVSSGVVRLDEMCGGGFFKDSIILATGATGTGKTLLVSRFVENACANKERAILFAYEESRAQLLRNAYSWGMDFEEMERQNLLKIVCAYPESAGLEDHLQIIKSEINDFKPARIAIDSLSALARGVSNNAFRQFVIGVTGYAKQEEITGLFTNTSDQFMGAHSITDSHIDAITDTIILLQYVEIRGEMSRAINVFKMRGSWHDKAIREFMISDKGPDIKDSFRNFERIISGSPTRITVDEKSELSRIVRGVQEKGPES

KaiC-AE (mimic of S/pT) [4] = molecular target: T2, KaiC-AE (mimic of S/pT) (S. elongatus, UniProt Q79PF4 1-519, KaiC-AE (S431 to A) | KaiC-AE (T432 to E)); experiment: as above; conditions: both partners purified
T2 construct: KaiC of Synechococcus elongatus with the two phosphorylation sites S431 and T432 changed to A and E; the two substitutions are read from these; source: E. coli BL21 or DH5α, pGEX-based construct, purified (glutathione-agarose, HRV3C cleavage on the column, Q Sepharose); not shown: GST, N-terminal, cleaved
T2 sequence: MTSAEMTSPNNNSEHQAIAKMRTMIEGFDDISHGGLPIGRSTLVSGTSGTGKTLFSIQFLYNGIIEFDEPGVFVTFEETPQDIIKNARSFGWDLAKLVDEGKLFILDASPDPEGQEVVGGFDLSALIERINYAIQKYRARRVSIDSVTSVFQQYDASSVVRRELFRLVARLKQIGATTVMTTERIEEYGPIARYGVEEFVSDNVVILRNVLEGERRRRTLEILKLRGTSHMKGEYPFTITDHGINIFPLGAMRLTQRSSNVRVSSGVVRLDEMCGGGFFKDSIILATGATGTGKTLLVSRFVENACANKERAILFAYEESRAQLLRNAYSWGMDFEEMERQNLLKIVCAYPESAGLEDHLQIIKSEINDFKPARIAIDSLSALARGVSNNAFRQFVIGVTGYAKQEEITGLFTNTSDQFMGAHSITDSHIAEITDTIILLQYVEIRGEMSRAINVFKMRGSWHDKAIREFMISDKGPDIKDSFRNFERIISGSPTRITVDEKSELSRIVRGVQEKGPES

KaiC-DE (mimic of pS/pT) [5] = molecular target: T3, KaiC-DE (mimic of pS/pT) (S. elongatus, UniProt Q79PF4 1-519, KaiC-DE (S431 to D) | KaiC-DE (T432 to E)); experiment: as above; conditions: both partners purified
T3 construct: KaiC of Synechococcus elongatus with the two phosphorylation sites S431 and T432 changed to D and E; the two substitutions are read from these; source: E. coli BL21 or DH5α, pGEX-based construct, purified (glutathione-agarose, HRV3C cleavage on the column, Q Sepharose); not shown: GST, N-terminal, cleaved
T3 sequence: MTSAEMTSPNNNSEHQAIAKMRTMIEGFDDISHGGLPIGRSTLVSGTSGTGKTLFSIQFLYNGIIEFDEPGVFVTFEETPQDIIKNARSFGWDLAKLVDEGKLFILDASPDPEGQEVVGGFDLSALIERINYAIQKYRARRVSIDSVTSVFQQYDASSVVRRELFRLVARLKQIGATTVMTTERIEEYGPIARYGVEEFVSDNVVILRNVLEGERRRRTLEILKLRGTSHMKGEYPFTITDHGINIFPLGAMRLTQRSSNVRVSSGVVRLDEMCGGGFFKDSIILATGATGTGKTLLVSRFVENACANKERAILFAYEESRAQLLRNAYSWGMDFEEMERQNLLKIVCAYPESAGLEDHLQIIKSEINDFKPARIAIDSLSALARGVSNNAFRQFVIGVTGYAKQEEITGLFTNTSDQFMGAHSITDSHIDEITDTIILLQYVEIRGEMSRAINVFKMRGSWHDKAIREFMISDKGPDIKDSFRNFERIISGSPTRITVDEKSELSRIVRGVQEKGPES

KaiC-AA (mimic of S/T) = molecular target: T4, KaiC-AA (mimic of S/T) (S. elongatus, UniProt Q79PF4 1-519, KaiC-AA (S431 to A) | KaiC-AA (T432 to A)); experiment: high-speed atomic force microscopy (HS-AFM); as Fig. 3 but with 1 mM ATP in the observation buffer (Supplementary Fig. 4); KaiC phospho-mimics on AP-mica, KaiA in solution; conditions: both partners purified
T4 construct: KaiC of Synechococcus elongatus with the two phosphorylation sites S431 and T432 changed to A and A; the two substitutions are read from these; source: E. coli BL21 or DH5α, pGEX-based construct, purified (glutathione-agarose, HRV3C cleavage on the column, Q Sepharose); not shown: GST, N-terminal, cleaved
T4 sequence: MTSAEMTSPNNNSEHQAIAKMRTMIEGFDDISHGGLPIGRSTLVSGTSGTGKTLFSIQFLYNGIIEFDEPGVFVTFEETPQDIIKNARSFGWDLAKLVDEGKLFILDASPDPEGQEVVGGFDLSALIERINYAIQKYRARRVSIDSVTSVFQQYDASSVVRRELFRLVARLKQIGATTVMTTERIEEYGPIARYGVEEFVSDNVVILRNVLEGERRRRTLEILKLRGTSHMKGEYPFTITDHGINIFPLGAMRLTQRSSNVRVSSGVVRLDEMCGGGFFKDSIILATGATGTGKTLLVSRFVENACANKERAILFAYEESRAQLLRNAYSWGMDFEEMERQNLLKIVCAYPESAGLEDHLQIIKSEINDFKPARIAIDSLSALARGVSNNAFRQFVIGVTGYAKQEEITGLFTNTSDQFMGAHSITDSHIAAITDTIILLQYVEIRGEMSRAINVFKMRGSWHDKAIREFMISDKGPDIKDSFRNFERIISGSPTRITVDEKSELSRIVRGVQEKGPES

KaiC-AE (mimic of S/pT) [6] = molecular target: T2, KaiC-AE (mimic of S/pT); experiment: as above; conditions: both partners purified
KaiC-DE (mimic of pS/pT) [7] = molecular target: T3, KaiC-DE (mimic of pS/pT); experiment: as above; conditions: both partners purified
[8] = reference: KaiC-AA (S431A/T432A), sites T432
[9] = reference: KaiC-AA (S431A/T432A), sites S431
[10] = reference: KaiC-AA (S431A/T432A), sites S431,T432
[11] = reference: KaiC-AE (S431A/T432E), sites S431

KaiC (from UniProt Q79PF4) KaiC-AE (S431A/T432E)
other: bound-state lifetime τbound (KaiA [1]; [8]): 1 s
other: bound-state lifetime τbound (KaiA [2]; [8]): 0.95 s

KaiC (from UniProt Q79PF4) KaiC-DA (S431D/T432A)
other: bound-state lifetime τbound (KaiA [1]; [9]): 0.43 s
other: bound-state lifetime τbound (KaiA [2]; [9]): 0.43 s

KaiC (from UniProt Q79PF4) KaiC-DE (S431D/T432E)
other: bound-state lifetime τbound (KaiA [1]; [10]): 0.26 s
other: bound-state lifetime τbound (KaiA [1]; [11]): weaker; reference 1.00 ± 0.15
other: bound-state lifetime τbound (KaiA [2]; [10]): 0.31 s
other: bound-state lifetime τbound (KaiA [2]; [11]): weaker; reference 0.95 ± 0.04
other: bound-state lifetime τbound (KaiA [2]; reference: KaiC-DA (S431D/T432A), sites T432): weaker; reference 0.43 ± 0.01

KaiC (from UniProt Q79PF4) KaiCWT from peak phosphorylation phase (24 h)
other: bound-state lifetime τbound (KaiA [1]; reference: KaiCWT from trough phosphorylation phase (15 h), sites S431,T432): weaker; reference 0.77 ± 0.05

KaiC (from UniProt Q79PF4) hyperphosphorylated KaiCWT (~81% phosphorylated)
other: bound-state lifetime τbound (KaiA [1]; reference: hypo-phosphorylated KaiCWT (~27% phosphorylated), sites S431,T432): weaker; reference 1.12 ± 0.03

B1: native wild-type KaiC hexamer (KaiC^WT) (natural protein, S. elongatus)
chain: MTSAEMTSPNNNSEHQAIAKMRTMIEGFDDISHGGLPIGRSTLVSGTSGTGKTLFSIQFLYNGIIEFDEPGVFVTFEETPQDIIKNARSFGWDLAKLVDEGKLFILDASPDPEGQEVVGGFDLSALIERINYAIQKYRARRVSIDSVTSVFQQYDASSVVRRELFRLVARLKQIGATTVMTTERIEEYGPIARYGVEEFVSDNVVILRNVLEGERRRRTLEILKLRGTSHMKGEYPFTITDHGINIFPLGAMRLTQRSSNVRVSSGVVRLDEMCGGGFFKDSIILATGATGTGKTLLVSRFVENACANKERAILFAYEESRAQLLRNAYSWGMDFEEMERQNLLKIVCAYPESAGLEDHLQIIKSEINDFKPARIAIDSLSALARGVSNNAFRQFVIGVTGYAKQEEITGLFTNTSDQFMGAHSITDSHISTITDTIILLQYVEIRGEMSRAINVFKMRGSWHDKAIREFMISDKGPDIKDSFRNFERIISGSPTRITVDEKSELSRIVRGVQEKGPES
notes: circadian clock protein KaiC of Synechococcus elongatus, native (unmutated); also called native KaiC; C6; source: E. coli BL21 or DH5α, pGEX-based construct, purified (glutathione-agarose, HRV3C cleavage on the column, Q Sepharose; 5 mM MgCl2 and 1 mM ATP throughout); not shown: GST, N-terminal, cleaved
stoichiometry N [3]: 6

B2: KaiA (natural protein, S. elongatus, UniProt Q79PF6 1-284, looked up)
chain: MLSQIAICIWVESTAILQDCQRALSADRYQLQVCESGEMLLEYAQTHRDQIDCLILVAANPSFRAVVQQLCFEGVVVPAIVVGDRDSEDPDEPAKEQLYHSAELHLGIHQLEQLPYQVDAALAEFLRLAPVETMADHIMLMGANHDPELSSQQRDLAQRLQERLGYLGVYYKRDPDRFLRNLPAYESQKLHQAMQTSYREIVLSYFSPNSNLNQSIDNFVNMAFFADVPVTKVVEIHMELMDEFAKKLRVEGRSEDILLDYRLTLIDVIAHLCEMYRRSIPRET
notes: circadian clock protein KaiA of Synechococcus elongatus, native (unmutated); also called native KaiA; KaiA dimer; source: E. coli BL21 or DH5α, pGEX-based construct, purified (glutathione-agarose, HRV3C cleavage on the column, Q Sepharose); not shown: GST, N-terminal, cleaved
τ_(bound) (dwell time of the bound state) (KaiC-DA (mimic of pS/T)): 0.43 s
τ_(bound) (dwell time of the bound state) (KaiC-AE (mimic of S/pT) [4]): 1 s
τ_(bound) (dwell time of the bound state) (KaiC-DE (mimic of pS/pT) [5]): 0.26 s
binding result (KaiC-AA (mimic of S/T)): binds
τ_(bound) (dwell time of the bound state) (KaiC-AE (mimic of S/pT) [6]): 0.95 s
τ_(bound) (dwell time of the bound state) (KaiC-DE (mimic of pS/pT) [7]): 0.31 s
